Patent US20240293512A1 (HANMI PHARM, published 2024)
Bridge positions count the residues as written; N and C are the ends. Square brackets hold non-standard residues; d marks the D form. Ends that are not written are not given here. Aib = CC(C)(N)C(=O)O

Target: human GCG receptor (human, UniProt P47871 26-477)
Assay: cell-based or functional assay

Chain of human GCG receptor (P47871 26-477): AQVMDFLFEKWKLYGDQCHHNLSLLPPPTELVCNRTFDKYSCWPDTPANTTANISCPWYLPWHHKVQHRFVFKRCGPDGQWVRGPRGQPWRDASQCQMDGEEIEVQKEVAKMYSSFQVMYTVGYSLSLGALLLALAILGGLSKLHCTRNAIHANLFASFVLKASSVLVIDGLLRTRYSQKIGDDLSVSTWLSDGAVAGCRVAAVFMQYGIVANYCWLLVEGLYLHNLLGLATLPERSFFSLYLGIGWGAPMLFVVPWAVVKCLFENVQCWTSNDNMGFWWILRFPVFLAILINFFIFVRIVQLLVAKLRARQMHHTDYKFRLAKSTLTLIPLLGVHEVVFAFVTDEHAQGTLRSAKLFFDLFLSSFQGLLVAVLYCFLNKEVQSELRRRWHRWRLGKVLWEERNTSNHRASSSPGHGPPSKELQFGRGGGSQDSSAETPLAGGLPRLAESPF

Binder | In vitro activity compared with native peptide (%) vs Glucagon (cAMP EC50)
H[Aib]QGTFTSDYSKYLDEKAQKEFVQWLLDTC (bridge 16-20) [triple agonist of SEQ ID NO: 30] | 0.7%
H[Aib]QGTFTSDVSSYLLGQAAKQFIAWLVKGGGPSSGAPPPSC [triple agonist of SEQ ID NO: 3] | < 0.1%
Y[Aib]QGTFTSDYSKYLDECRAKEFVQWLKNGGPSSGAPPPS (bridge 16-20) [triple agonist of SEQ ID NO: 24] | 9.3%
H[Aib]QGTFTSDYSIAMDEIHQKDFVNWLLAQKC (bridge 16-20) [triple agonist of SEQ ID NO: 33] | < 0.1%
H[Aib]QGTFTSDYSKYLDEKACKDFVQWLLDGGPSSGAPPPS (bridge 16-20) [triple agonist of SEQ ID NO: 32] | 1.7%
H[Aib]QGTFTSDYSKYLDEKRAQEFVCWLLAQKGKKNDWKHNIT [triple agonist of SEQ ID NO: 28] | 1.6%
H[Aib]QGTFTSDYSKYLDEKACKEFVQWLLAQ (bridge 16-20) [triple agonist of SEQ ID NO: 31] | 2.2%
H[Aib]QGTFTSDYSKYLDEKAAKEFVQWLLNTC (bridge 16-20) [triple agonist of SEQ ID NO: 29] | 6%
H[Aib]QGTFTSDYSKYLDERACQDFVQWLLDQGGPSSGAPPPS [triple agonist of SEQ ID NO: 27] | 0.8%
Y[Aib]QGTFTSDYSKYLDECRAKEFVQWLLAQKGKKNDWKHNIT (bridge 16-20) [triple agonist of SEQ ID NO: 23] | 9.3%
H[Aib]QGTFTSDCSKYLDERAAQDFVQWLLDGGPSSGAPPPS [triple agonist of SEQ ID NO: 25] | 0.1%
H[Aib]QGTFTSDCSKYLDSRAAQDFVQWLLDGGPSSGAPPPS [triple agonist of SEQ ID NO: 26] | 0.2%

Target: T1, human GIP receptor (human, UniProt P48546 22-466)
T1 sequence (looked up): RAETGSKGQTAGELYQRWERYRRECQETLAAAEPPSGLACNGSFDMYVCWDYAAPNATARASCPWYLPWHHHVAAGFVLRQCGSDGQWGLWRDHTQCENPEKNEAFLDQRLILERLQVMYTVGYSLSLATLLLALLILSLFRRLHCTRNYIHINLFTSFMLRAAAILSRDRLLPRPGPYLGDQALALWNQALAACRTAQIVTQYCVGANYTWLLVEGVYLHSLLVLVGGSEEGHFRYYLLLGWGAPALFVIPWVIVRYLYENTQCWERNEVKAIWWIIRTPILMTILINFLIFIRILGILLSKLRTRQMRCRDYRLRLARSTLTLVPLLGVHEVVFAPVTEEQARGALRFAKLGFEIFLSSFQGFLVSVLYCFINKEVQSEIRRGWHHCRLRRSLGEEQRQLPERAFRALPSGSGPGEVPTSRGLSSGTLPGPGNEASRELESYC
Assay: cell-based or functional assay

Binder | In vitro activity compared with native peptide (%) vs GIP (cAMP EC50)
H[Aib]QGTFTSDYSKYLDEKAQKEFVQWLLDTC (bridge 16-20) [triple agonist of SEQ ID NO: 30] | 0.8%
H[Aib]QGTFTSDVSSYLLGQAAKQFIAWLVKGGGPSSGAPPPSC [triple agonist of SEQ ID NO: 3] | < 0.1%
Y[Aib]QGTFTSDYSKYLDECRAKEFVQWLKNGGPSSGAPPPS (bridge 16-20) [triple agonist of SEQ ID NO: 24] | < 0.1%
H[Aib]QGTFTSDYSIAMDEIHQKDFVNWLLAQKC (bridge 16-20) [triple agonist of SEQ ID NO: 33] | 10.4%
H[Aib]QGTFTSDYSKYLDEKACKDFVQWLLDGGPSSGAPPPS (bridge 16-20) [triple agonist of SEQ ID NO: 32] | 8.8%
H[Aib]QGTFTSDYSKYLDEKRAQEFVCWLLAQKGKKNDWKHNIT [triple agonist of SEQ ID NO: 28] | < 0.1%
H[Aib]QGTFTSDYSKYLDEKACKEFVQWLLAQ (bridge 16-20) [triple agonist of SEQ ID NO: 31] | 2.4%
H[Aib]QGTFTSDYSKYLDEKAAKEFVQWLLNTC (bridge 16-20) [triple agonist of SEQ ID NO: 29] | < 0.1%
H[Aib]QGTFTSDYSKYLDERACQDFVQWLLDQGGPSSGAPPPS [triple agonist of SEQ ID NO: 27] | 0.9%
Y[Aib]QGTFTSDYSKYLDECRAKEFVQWLLAQKGKKNDWKHNIT (bridge 16-20) [triple agonist of SEQ ID NO: 23] | < 0.1%
H[Aib]QGTFTSDCSKYLDERAAQDFVQWLLDGGPSSGAPPPS [triple agonist of SEQ ID NO: 25] | < 0.1%
H[Aib]QGTFTSDCSKYLDSRAAQDFVQWLLDGGPSSGAPPPS [triple agonist of SEQ ID NO: 26] | < 0.1%

Target: human GLP-1 receptor (human, UniProt P43220 24-463)
Assay: cell-based or functional assay

Binder | In vitro activity compared with native peptide (%) vs GLP-1 (cAMP EC50)
H[Aib]QGTFTSDYSKYLDEKAQKEFVQWLLDTC (bridge 16-20) [triple agonist of SEQ ID NO: 30] | 142%
H[Aib]QGTFTSDVSSYLLGQAAKQFIAWLVKGGGPSSGAPPPSC [triple agonist of SEQ ID NO: 3] | 1.8%
Y[Aib]QGTFTSDYSKYLDECRAKEFVQWLKNGGPSSGAPPPS (bridge 16-20) [triple agonist of SEQ ID NO: 24] | 41.2%
H[Aib]QGTFTSDYSIAMDEIHQKDFVNWLLAQKC (bridge 16-20) [triple agonist of SEQ ID NO: 33] | 24.5%
H[Aib]QGTFTSDYSKYLDEKACKDFVQWLLDGGPSSGAPPPS (bridge 16-20) [triple agonist of SEQ ID NO: 32] | 151%
H[Aib]QGTFTSDYSKYLDEKRAQEFVCWLLAQKGKKNDWKHNIT [triple agonist of SEQ ID NO: 28] | 17.2%
H[Aib]QGTFTSDYSKYLDEKACKEFVQWLLAQ (bridge 16-20) [triple agonist of SEQ ID NO: 31] | 135%
H[Aib]QGTFTSDYSKYLDEKAAKEFVQWLLNTC (bridge 16-20) [triple agonist of SEQ ID NO: 29] | 38.5%
H[Aib]QGTFTSDYSKYLDERACQDFVQWLLDQGGPSSGAPPPS [triple agonist of SEQ ID NO: 27] | 83.1%
Y[Aib]QGTFTSDYSKYLDECRAKEFVQWLLAQKGKKNDWKHNIT (bridge 16-20) [triple agonist of SEQ ID NO: 23] | 4.01%
H[Aib]QGTFTSDCSKYLDERAAQDFVQWLLDGGPSSGAPPPS [triple agonist of SEQ ID NO: 25] | 82.6%
H[Aib]QGTFTSDCSKYLDSRAAQDFVQWLLDGGPSSGAPPPS [triple agonist of SEQ ID NO: 26] | 64.5%
